In patent US20060019893:

Target: human FX, P00742
Sequence (P00742 whole entry, looked up): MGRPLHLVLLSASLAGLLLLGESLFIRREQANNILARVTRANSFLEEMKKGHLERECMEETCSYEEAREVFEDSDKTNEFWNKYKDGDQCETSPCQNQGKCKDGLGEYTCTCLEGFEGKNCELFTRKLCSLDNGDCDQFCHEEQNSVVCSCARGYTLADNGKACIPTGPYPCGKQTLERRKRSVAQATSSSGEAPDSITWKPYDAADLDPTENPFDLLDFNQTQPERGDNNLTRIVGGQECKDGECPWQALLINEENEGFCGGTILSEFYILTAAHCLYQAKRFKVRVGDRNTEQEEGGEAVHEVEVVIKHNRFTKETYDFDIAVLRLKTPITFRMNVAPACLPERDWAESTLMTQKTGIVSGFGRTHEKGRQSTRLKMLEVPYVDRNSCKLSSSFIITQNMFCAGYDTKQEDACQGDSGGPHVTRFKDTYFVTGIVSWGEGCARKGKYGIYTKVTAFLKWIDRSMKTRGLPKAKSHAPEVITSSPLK

B1: wildtype FVIIa (protein)
chain 1: ANAFLEELRPGSLERECKEEQCSFEEAREIFKDAERTKLFWISYSDGDQCASSPCQNGGSCKDQLQSYICFCLPAFEGRNCETHKDDQLICVNENGGCEQYCSDHTGTKRSCRCHEGYSLLADGVSCTPTVEYPCGKIPILEKRNASKPQGR
chain 2: IVGGKVCPKGECPWQVLLLVNGAQLCGGTLINTIWVVSAAHCFDKIKNWRNLIAVLGEHDLSEHDGDEQSRRVAQVIIPSTYVPGTTNHDIALLRLHQPVVLTDHVVPLCLPERTFSERTLAFVRFSLVSGWGQLLDRGATALELMVLNVPRLMTQDCLQQSRKVGDSPNITEYMFCAGYSDGSKDSCKGDSGGPHATHYRGTWYLTGIVSWGQGCATVGHFGVYTRVSQYIEWLQKLMRSEPRPGVLLRAPFP
B1 was tested. Which Km, FX activation by relipidated TF•FVIIa (0.4 nM relipidated TF, 1 nM FVIIa) did it give?
The Km, FX activation by relipidated TF•FVIIa (0.4 nM relipidated TF, 1 nM FVIIa) was 0.13 µM.

And the Vmax, FX activation by relipidated TF•FVIIa (0.4 nM relipidated TF, 1 nM FVIIa)?
The Vmax, FX activation by relipidated TF•FVIIa (0.4 nM relipidated TF, 1 nM FVIIa) was 600 mOD405/min.

And the Vmax/Km, FX activation by relipidated TF•FVIIa (mOD405/min/nM)?
Its Vmax/Km, FX activation by relipidated TF•FVIIa (mOD405/min/nM) is 4.6.
